The results in this text go back to PMC12337289, “Cryo-EM structure and polar assembly of the PS2 S-layer of Corynebacterium glutamicum” (Proceedings of the National Academy of Sciences of the …, 2025).

Broadly, the stoichiometry N is the number of molecules, sites or subunits per partner or assembly.

The target of series [1] is PS2 S-layer protein, ex vivo S-layer fragments from C. glutamicum ATCC13032 icd::cspB (C. glutamicum). The series can be described thus: cryo-EM structure; ex vivo PS2 S-layer fragments, 0.02% DDM added before plunging, tilted images at 15° and 30°, single-particle reconstruction with C6 symmetry; lattice of hexamers (C6) joined by trimeric (C3) contacts.
Series [2] concerns the molecule itself. In words: negative-stain electron microscopy of isolated S-layer sheets; isolated S-layer sheets (cleared SDS extractions of C. glutamicum; washed recombinant sheets from E. coli); lattice seen in the power spectrum; sheets also kept after incubation with 10 mM EDTA.

As for “PS2 S-layer protein, ex vivo S-layer fragments from C. glutamicum ATCC13032 icd::cspB (natural protein)”, the stoichiometry N in series [1] was determined as 6.

B1: PS2 assembly domain (PS2^AD; residues 30 to 483), recombinant (domain or fragment, C. glutamicum, UniProt Q04985 30-483, looked up)
chain: AQETNPTFNITNGFNDADGSTIQPVGPVNHTEETLRDLTDSTGAYLEEFQNGTVEEIVEAYLQVQASADGFDPSEQAAYEAFEAARVRASQELAASAETITKTRESVAYALKVDQEATAAFEAYRNALRDAAISINPDGSINPDTSINLLIDAANAANRTDRAEIEDYAHLYTQTDIALETPQLAYAFQDLKALQAEVDADFEWLGEFGIDQEDGNYVQRYHLPAVEALKAEVDARVAAIEPLRADSIAKNLEAQKSDVLVRQLFLERATAQRDTLRVVEAIFSTSARYVELYENVENVNVENKTLRQHYSALIPNLFIAAVANISELNAADAEAAAYYLHWDTDLATNDEDEAYYKAKLDFAIETYAKILFNGEVWQEPLAYVQNLDAGARQEAADREAARAADEAYRAEQLRIAQEAADAQKAIAEALAKEAEGNNDNSSDNTETGSSDIGS
notes: PS2 (cspB) of C. glutamicum, residues 30 to 483; the membrane anchoring domain is replaced by a hexahistidine tag; Vector pASK-IBA3plus; also called recombinant soluble PS2^AD; plasmid A231; source: E. coli BL21 (DE3) cytoplasm, gel-like pelleted fraction, washed with 1% DDM and SEC buffer; not shown: hexahistidine, C-terminal, kept
For B1, the binding result in series [2] is reported as “binds”.
